Substrate in this data set: CC(=O)c1ccc(O[C@@H]2O[C@H](CO)[C@@H](O)[C@H](O)[C@H]2O)cc1
The experiment in a line: LC-MS assay of aglycon release. It is filed as biochemical, Picea glauca. The following applies: 0.01–2.0 mM picein, 20 mM MES-KOH, pH 6, 37°C, 1 h.

Experimental findings from paper PMC4404995 are described below.

B1: PgβGLU-1 (Picea glauca) (protein)
chain: TSPDLGRSSFPKGFKFGAGSSAYQDEGAALEGGKGPSIWDTFSHIQGKIEDGKNGDVAVDQYHRYKEDVRHLKYMGMDLYRFSISWSRIFPQGSPRHGGVNEEGITYYNNLINELLKNGMEPFVTLYHWDMPQALEDEYGGFRSQRVVEDIGTFAEECFRAFGDRVKYWTTINEPLTFTLYGYDLGIHAPGRCSPGFGNCTAGNSATEPYIVTHNMLLAHSAAVKTYRTKYQGKQKGSIGISLVVNWMVPYSNSLLDQEATQRAIDFRIGWFLDPLTSGKYPDSMRSLVGARLPRFSSEEAKDLKGSFDFLGYNYYQTYFTVNNPTPQNSLNTDYVLDAQANISQQVNGVYVGSSEGVSSFRSYPAGLREVINYTKHRYSNPPIYITETGYGDFDNGTTPLEEALQDSGRVEYYSKHLSSLLEAIREGADVRGYVVWSFLDGFEWASGYDYRFGLYYVDYNDNLKRYPRESANWFRNVLKS
As for B1, the Km stood at 1280 ± 530 µM.
